Source: US20150119254, “NUCLEIC ACID FRAGMENT BINDING TO TARGET PROTEIN” (RIKEN, published 2015)

Key:
IFN-gamma [1] = target: T1, IFN-gamma (UniProt P01579 P01579:24-166); experiment: SPR; 150 nM IFN-gamma, 930 s; conditions: tags: PeproTech; chain copies: 2
Description: (§1) FIGS. 19A to 19C show the SPR sensorgrams wherein 50 nM, 100 nM, or 150 nM IFN-γ was injected. […] Each sensorgram was normalized to the molecular weight of a DNA fragment bound with SPR, the molecular weight of an injected protein, and the amount of the SPR-bound DNA fragment immobilized (RU). The injection time is 480 seconds. The dissociation time is 480 seconds.
(§2) Five types of sequences were selected from the sequences shown in Table 12 and analyzed for their IFN-γ-binding ability by surface plasmon resonance assay and 57-mer DNA fragments (Table 13) truncated at a primer region. A previously reported 57-mer DNA fragment comprising the DNA sequence of IFN-γ was also prepared and analyzed as a control.

VEGF-165 [2] = target: T2, VEGF-165 (Homo sapiens, UniProt P15692-4 P15692-4:27-191); experiment: SPR; 25 C; conditions: tags: PeproTech; chain copies: 2 (dimer, concentrations stated in terms of dimer)
T2 sequence (P15692 other isoform, or with tags, fused parts or gaps): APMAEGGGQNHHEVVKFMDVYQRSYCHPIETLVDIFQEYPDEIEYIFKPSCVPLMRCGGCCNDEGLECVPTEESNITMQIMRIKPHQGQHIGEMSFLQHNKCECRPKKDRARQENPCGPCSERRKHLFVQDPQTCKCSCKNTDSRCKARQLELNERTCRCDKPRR

VEGF-165 [3] = target: T2, VEGF-165; experiment: SPR; existing aptamer control; 25 C; conditions: tags: PeproTech; chain copies: 2 (dimer, concentrations stated in terms of dimer)
VEGF-165 [4] = target: T2, VEGF-165; experiment: SPR; previously reported aptamer control; conditions: tags: PeproTech; chain copies: 2 (dimer, concentrations stated in terms of dimer); label: 5' biotin-dT
Description: For comparison, 98-mer (full length) N43Ds-09-1, full-length DNA fragments N43Ds-09-1(AT) and N43Ds-09-1(G) with the artificial base Ds replaced with a natural base, and a control DNA fragment reported as a VEGF-binding DNA aptamer (VEGF binding DNA 35, 35 mer) were also assayed under the same conditions. As in the full length binding analysis of Example 2, each DNA fragment having biotinylated T added to the end for the direct immobilization of the DNA fragment onto an SA chip (GE Healthcare Japan Corp.) was prepared by chemical synthesis and gel purification. For the immobilization of each DNA fragment onto the sensor chip, a DNA solution diluted with a PBS solution to 25 nM was subjected to folding treatment (90° C. for 3 min→60° C. for 3 min→25° C.), and Nonidet P-40 was then added thereto at a final concentration of 0.05%. The resulting DNA solution (5 μl; corresponding to 1 min) was injected to the SA chip at a flow rate of 5 μl/min to immobilize the DNA fragment onto the chip. […]
The interaction between the immobilized DNA fragment and VEGF-165 was detected under monitoring by the injection of 12.5 nM, 25 nM, 37.5 nM, 50 nM, 62.5 nM, and 75 nM VEGF-165 solutions (diluted with buffer solution A; in terms of dimer) at the Kinetic Injection mode. […]

VEGF-165 [5] = target: T2, VEGF-165; experiment: SPR; random control; conditions: tags: PeproTech; chain copies: 2 (dimer, concentrations stated in terms of dimer)
VEGF-165 [6] = target: T2, VEGF-165; experiment: SPR; 10 nM VEGF-165, 930 s; conditions: tags: PeproTech; chain copies: 2 (dimer, concentrations stated in terms of dimer)
Description: as §1, with “15A” for “19A”, “15C” for “19C”, “2.5” for “50”, “5” for “100”, “10” for “150”, “VEGF-165” for “IFN-γ”
as §2, with “8” for “12”, “VEGF-165-binding” for “IFN-γ-binding”, “resonance (SPR)” for “resonance”, “assay using BIACORE 3000 (GE Healthcare Japan Corp.)” for “assay”, “9)” for “13)”, “VEGF-165” for “IFN-γ”

IFN-gamma [7] = target: T1, IFN-gamma; experiment: SPR; existing aptamer control; conditions: tags: PeproTech; chain copies: 2
VEGF-165 [8] = target: T2, VEGF-165; experiment: SPR; 25 C; conditions: tags: PeproTech; chain copies: 2 (dimer, concentrations stated in terms of dimer); remark: listed apart in the source
Description: as §2, with “8” for “12”, “VEGF-165-binding” for “IFN-γ-binding”, “resonance (SPR)” for “resonance”, “assay using BIACORE 3000 (GE Healthcare Japan Corp.)” for “assay”, “9)” for “13)”, “VEGF-165” for “IFN-γ”
(§3) The DNA fragments used in the assay were subjected to curve fitting using BiaEvaluation software attached to Biacore 3000 and reaction models of Langmuir with mass transfer.

VEGF-165 [9] = target: T2, VEGF-165; experiment: SPR; printed as uM, evidently pM; existing aptamer control; conditions: tags: PeproTech; chain copies: 2 (dimer, concentrations stated in terms of dimer)
Description: as §2, with “8” for “12”, “VEGF-165-binding” for “IFN-γ-binding”, “resonance (SPR)” for “resonance”, “assay using BIACORE 3000 (GE Healthcare Japan Corp.)” for “assay”, “9)” for “13)”, “VEGF-165” for “IFN-γ”
as §3

IFN-gamma [10] = target: T1, IFN-gamma; experiment: SPR; Bound 0.14; conditions: tags: PeproTech; chain copies: 2

T1 sequence (P01579 24-166, one chain of several): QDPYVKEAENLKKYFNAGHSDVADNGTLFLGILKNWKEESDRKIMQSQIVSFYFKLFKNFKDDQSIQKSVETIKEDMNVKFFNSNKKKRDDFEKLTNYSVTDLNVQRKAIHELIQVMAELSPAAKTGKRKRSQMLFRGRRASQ

B1: IF11A-57 (ssDNA)
DNA: ATCAGTCCACCTATGTGGGTTGGATGGGGTGTATGTTAGTAGGGCTAAGGAGGTGG
In the case of B1, the binding signal (IFN-gamma [1]) is reported as 0.46 bound ratio.

B2: VGd1-2A-45 (ssDNA)
DNA: GTAAACTGCGTCCGAAGGGGCATGCAGTGAACCCGAATGGGTCCG
For B2, the Kd (VEGF-165 [2]) was 0.5 nM.

B3: contVG-47 (ssDNA)
DNA: CGATCGTATCAGTCCACAAGCCCGTCTTCCAGACAAGAGTGCAGGGC
B3 gave a Kd (VEGF-165 [3]) of 0.044 nM.

B4: VEGF binding DNA 35 (ssDNA)
DNA: TTGCACTCTGTGGGGGTGGACGGGCCGGGTAGATA
For B4, the Kd (VEGF-165 [4]) was > 100 nM.

B5: IF07aA-57 (ssDNA)
DNA: ATCAGTCCACTCCTTCTGTCATAGGGCAGGCGCATTTGGTGTAGAGTTTATCTTGG
Binder B5 has a binding signal (IFN-gamma [1]) of 0.19 bound ratio.

B6: Random-45 (ssDNA)
DNA: ATGCTAGAGCATTGCGTAGAAGCTTGATATGTTGCTGGCCCGGAC
B6 showed a binding signal (VEGF-165 [5]) of 0.01 bound ratio.

B7: VG08A-57 (ssDNA)
DNA: ATCAGTCCACGAGATGGATGGTAGTGGCCGAACGGGGGGGATGGAGAAGCTGGCTG
For B7, the binding signal (VEGF-165 [6]) was 0.01 bound ratio.

B8: VG02aA-57 (ssDNA)
DNA: ATCAGTCCACATCGAGCGTGAGGTCCGAAAGGCGACTCTTATAACATCAAGTAATG
In the case of B8, the binding signal (VEGF-165 [6]) is reported as 0.01 bound ratio.

B9: contVG-45 (ssDNA)
DNA: ATCGTATCAGTCCACAAGCCCGTCTTCCAGACAAGAGTGCAGGGC
Binder B9 has a Kd (VEGF-165 [3]) of 0.081 nM.

B10: contIF-57 (ssDNA)
DNA: TTCTGTCAATCGATCGTATCAGTCCACAATGGGGTTGGTTGTGTTGGGTGTTGTGT
B10 was tested, and the Kd (IFN-gamma [7]) was 67 nM.

B11: VG01A-57 (ssDNA)
DNA: ATCAGTCCACAAAGTGCTGGGTCCGAATGGCGGGGGGTTAGGCCTCTTTGGGGCGG
B11 gave a binding signal (VEGF-165 [6]) of 0.37 bound ratio.

B12: VG20A-57 (ssDNA)
DNA: TCAGTCCACGGTAAACTGAGTCCGAAGGGGCATGCAGTGAACCCGAATGGGTCCGG
With B12 the Kd (VEGF-165 [8]) was 0.22 nM.

B13: IF04A-57 (ssDNA)
DNA: ATCAGTCCACTAATCAGGAAGAAGATAGGGTTTGTCTTATGTTGCCACGCTGGGAG
Binder B13 has a binding signal (IFN-gamma [1]) of 0.08 bound ratio.

B14: contVG-57 (ssDNA)
DNA: TCTGTCAATCGATCGTATCAGTCCACAAGCCCGTCTTCCAGACAAGAGTGCAGGGC
For B14, the Kd (VEGF-165 [9]) was 0.046 nM.

B15: VG02bA-57 (ssDNA)
DNA: ATCAGTCCACATACGCGGGGGTGTTGAAGGGTTAGTCGGAAGTAGTGTGTACAGAG
B15 gave a binding signal (VEGF-165 [6]) of 0.31 bound ratio.

B16: IFd1-3A-45 (ssDNA)
DNA: TCGGGTCATTTAATAATGTAGGTATGGGCTAGGCAGCTAGTGGAT
For B16, the Kd (IFN-gamma [10]) was > 200 nM.

B17: IF07bA-57 (ssDNA)
DNA: ATCAGTCCACTCGGGTCGTTTAATAATGTAGGTATGGGCTAGGCAGCTAGTGGATG
For B17, the binding signal (IFN-gamma [1]) was 0.05 bound ratio.
